Sequences and labels used below:
B1: DPP-IV V724A mutant (enzyme, human, UniProt P27487 39-766, looked up)
chain: SRKTYTLTDYLKNTYRLKLYSLRWISDHEYLYKQENNILVFNAEYGNSSVFLENSTFDEFGHSINDYSISPDGQFILLEYNYVKQWRHSYTASYDIYDLNKRQLITEERIPNNTQWVTWSPVGHKLAYVWNNDIYVKIEPNLPSYRITWTGKEDIIYNGITDWVYEEEVFSAYSALWWSPNGTFLAYAQFNDTEVPLIEYSFYSDESLQYPKTVRVPYPKAGAVNPTVKFFVVNTDSLSSVTNATSIQITAPASMLIGDHYLCDVTWATQERISLQWLRRIQNYSVMDICDYDESSGRWNCLVARQHIEMSTTGWVGRFRPSEPHFTLDGNSFYKIISNEEGYRHICYFQIDKKDCTFITKGTWEVIGIEALTSDYLYYISNEYKGMPGGRNLYKIQLSDYTKVTCLSCELNPERCQYYSVSFSKEAKYYQLRCSGPGLPLYTLHSSVNDKGLRVLEDNSALDKMLQNVQMPSKKLDFIILNETKFWYQMILPPHFDKSKKYPLLLDVYAGPCSQKADTVFRLNWATYLASTENIIVASFDGRGSGYQGDKIMHAINRRLGTFEVEDQIEAARQFSKMGFVDNKRIAIWGWSYGGYVTSMVLGSGSGVFKCGIAVAPVSRWEYYDSVYTERYMGLPTPEDNLDHYRNSTVMSRAENFKQVEYLLIHGTADDNVHFQQSAQISKALADVGVDFQAMWYTDEDHGIASSTAHQHIYTHMSHFIKQCFSLP
notes: Mixture of monomers and dimers
B2: DPP-IV Y735A mutant (enzyme, human, UniProt P27487 39-766, looked up)
chain: B1 chain with A686V, Y697A
notes: Monomer by AUC
B3: DPP-IV F713A mutant (enzyme, human, UniProt P27487 39-766, looked up)
chain: B1 chain with F675A, A686V
B4: DPP-IV Y248A mutant (enzyme, human, UniProt P27487 39-766, looked up)
chain: B1 chain with Y210A, A686V
notes: Monomer by AUC
B5: DPP-IV F713R mutant (enzyme, human, UniProt P27487 39-766, looked up)
chain: B1 chain with F675R, A686V
B6: DPP-IV W734A mutant (enzyme, human, UniProt P27487 39-766, looked up)
chain: B1 chain with A686V, W696A
notes: Monomer by AUC
B7: DPP-IV F730A mutant (enzyme, human, UniProt P27487 39-766, looked up)
chain: B1 chain with A686V, F692A
notes: as for B1
B8: Bovine adenosine deaminase (ADA) (enzyme, UniProt P56658 2-363, looked up)
chain: AQTPAFNKPKVELHVHLDGAIKPETILYYGRKRGIALPADTPEELQNIIGMDKPLSLPEFLAKFDYYMPAIAGCREAVKRIAYEFVEMKAKDGVVYVEVRYSPHLLANSKVEPIPWNQAEGDLTPDEVVSLVNQGLQEGERDFGVKVRSILCCMRHQPSWSSEVVELCKKYREQTVVAIDLAGDETIEGSSLFPGHVKAYAEAVKSGVHRTVHAGEVGSANVVKEAVDTLKTERLGHGYHTLEDATLYNRLRQENMHFEVCPWSSYLTGAWKPDTEHPVVRFKNDQVNYSLNTDDPLIFKSTLDTDYQMTKNEMGFTEEEFKRLNINAAKSSFLPEDEKKELLDLLYKAYGMPSPASAEQCL
modifications: coupled to CNBr-activated Sepharose 4B (affinity column)
B9: DPP-IV H750E mutant (enzyme, human, UniProt P27487 39-766, looked up)
chain: B1 chain with A686V, H712E
notes: range 39-766; Monomeric by AUC

Data set [1] concerns the molecule itself. Nature of the data set: dimer form listed in the table of kinetic constants (self-association).
The data set “AUC (self-association)” deals with the molecule itself. Nature of the data set: AUC (self-association).
A further data set concerns the target T1, DPP-IV H750A mutant (human, UniProt P27487 39-766).
T1 construct: range 39-766; also called H750A dimer; H750A monomer
Nature of the data set: ADA affinity column purification.

The target of the data set “DPP-IV H750E mutant” is B9. Nature of the data set: ADA affinity column purification.
Data set [2] deals with the molecule itself. Nature of the data set: velocity AUC in PBS (self-association).

The source of these data is patent US20060024313A1 (published 2006).

Numbering of substitutions follows the chain as printed. In names and notes the source's numbering stands.

With B1, in data set [1], the binding result is reported as “binds”.
For B2, in the data set “AUC (self-association)”, the binding result is reported as “no binding”.
The same measure, in the same setting: with B3 the entry was “no binding”; with B4, “no binding”; with B5, “no binding”.
B6: the binding result in the data set “AUC (self-association)” is reported as “no binding”.
Regarding B7, the binding result in data set [1] is “binds”.
Take B8: the binding result in the data set with DPP-IV H750A mutant and with DPP-IV H750E mutant was “binds” in each case.
Consider B9, for which the binding result in data set [2] is given as “no binding (tested: 0.1 to 0.2 mg/ml (1.2 uM to 2.3 uM))”.
